IntAct's records for PubMed 15744307

B1: Short transient receptor potential channel 3 (Homo sapiens), Q13507 (parent)
chain: MSTKVRKCKEQARVTFPAPEEEEDEGEDEGAEPQRRRRGWRGVNGGLEPRSAPSQREPHGYCPPPFSHGPDLSMEGSPSLRRMTVMREKGRRQAVRGPAFMFNDRGTSLTAEEERFLDAAEYGNIPVVRKMLEESKTLNVNCVDYMGQNALQLAVGNEHLEVTELLLKKENLARIGDALLLAISKGYVRIVEAILNHPGFAASKRLTLSPCEQELQDDDFYAYDEDGTRFSPDITPIILAAHCQKYEVVHMLLMKGARIERPHDYFCKCGDCMEKQRHDSFSHSRSRINAYKGLASPAYLSLSSEDPVLTALELSNELAKLANIEKEFKNDYRKLSMQCKDFVVGVLDLCRDSEEVEAILNGDLESAEPLEVHRHKASLSRVKLAIKYEVKKFVAHPNCQQQLLTIWYENLSGLREQTIAIKCLVVLVVALGLPFLAIGYWIAPCSRLGKILRSPFMKFVAHAASFIIFLGLLVFNASDRFEGITTLPNITVTDYPKQIFRVKTTQFTWTEMLIMVWVLGMMWSECKELWLEGPREYILQLWNVLDFGMLSIFIAAFTARFLAFLQATKAQQYVDSYVQESDLSEVTLPPEIQYFTYARDKWLPSDPQIISEGLYAIAVVLSFSRIAYILPANESFGPLQISLGRTVKDIFKFMVLFIMVFFAFMIGMFILYSYYLGAKVNAAFTTVEESFKTLFWSIFGLSEVTSVVLKYDHKFIENIGYVLYGIYNVTMVVVLLNMLIAMINSSYQEIEDDSDVEWKFARSKLWLSYFDDGKTLPPPFSLVPSPKSFVYFIMRIVNFPKCRRRRLQKDIEMGMGNSKSRLNLFTQSNSRVFESHSFNSILNQPTRYQQIMKRLIKRYVLKAQVDKENDEVNEGELKEIKQDISSLRYELLEDKSQATEELAILIHKLSEKLNPSMLRCE
partner: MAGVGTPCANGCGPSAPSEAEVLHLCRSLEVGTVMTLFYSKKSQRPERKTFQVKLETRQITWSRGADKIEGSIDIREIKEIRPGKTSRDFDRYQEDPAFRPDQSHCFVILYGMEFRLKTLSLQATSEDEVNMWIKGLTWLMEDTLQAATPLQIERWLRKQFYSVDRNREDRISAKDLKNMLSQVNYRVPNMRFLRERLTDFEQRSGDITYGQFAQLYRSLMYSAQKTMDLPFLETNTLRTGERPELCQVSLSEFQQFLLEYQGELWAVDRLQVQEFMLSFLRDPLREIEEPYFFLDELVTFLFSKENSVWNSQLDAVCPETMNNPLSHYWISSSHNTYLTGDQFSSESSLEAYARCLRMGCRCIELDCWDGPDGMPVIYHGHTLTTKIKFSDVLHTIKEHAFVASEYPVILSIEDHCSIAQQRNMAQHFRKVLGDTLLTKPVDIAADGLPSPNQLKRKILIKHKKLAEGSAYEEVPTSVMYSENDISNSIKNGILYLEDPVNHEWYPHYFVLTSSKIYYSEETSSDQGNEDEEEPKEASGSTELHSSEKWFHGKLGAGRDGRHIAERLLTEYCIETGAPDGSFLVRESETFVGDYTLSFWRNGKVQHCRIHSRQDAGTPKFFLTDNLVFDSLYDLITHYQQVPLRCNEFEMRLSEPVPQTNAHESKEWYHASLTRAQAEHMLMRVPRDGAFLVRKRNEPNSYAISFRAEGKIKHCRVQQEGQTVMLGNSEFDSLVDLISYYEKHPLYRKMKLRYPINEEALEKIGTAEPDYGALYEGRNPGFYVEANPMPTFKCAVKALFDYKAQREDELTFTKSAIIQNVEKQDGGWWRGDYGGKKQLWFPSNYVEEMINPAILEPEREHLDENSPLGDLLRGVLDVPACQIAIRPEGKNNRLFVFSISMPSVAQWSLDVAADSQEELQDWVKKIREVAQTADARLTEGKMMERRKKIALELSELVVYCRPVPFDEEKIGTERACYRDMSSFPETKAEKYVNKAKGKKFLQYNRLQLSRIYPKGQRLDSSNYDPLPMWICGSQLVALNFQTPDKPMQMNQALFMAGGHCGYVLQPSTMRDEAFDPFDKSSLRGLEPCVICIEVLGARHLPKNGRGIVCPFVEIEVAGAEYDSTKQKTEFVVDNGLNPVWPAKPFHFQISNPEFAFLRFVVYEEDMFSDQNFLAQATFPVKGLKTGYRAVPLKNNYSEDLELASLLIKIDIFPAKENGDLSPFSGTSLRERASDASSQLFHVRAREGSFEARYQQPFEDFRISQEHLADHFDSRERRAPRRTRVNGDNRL

Variants of: B1
Settings: with plcg1_rat Plcg1, P10686

effect of a mutation on the interaction	Variant
decreasing interaction	F116A
decreasing interaction	L117A
decreasing interaction	E113A
